Measured values taken from PMC5814804 (Nucleic Acids Research, 2018).

B1: Thermotoga maritima TsaD (natural protein, UniProt Q9WXZ2 1-327, looked up)
chain: MRVLGIETSCDETAVAVLDDGKNVVVNFTVSQIEVHQKFGGVVPEVAARHHLKNLPILLKKAFEKVPPETVDVVAATYGPGLIGALLVGLSAAKGLAISLEKPFVGVNHVEAHVQAVFLANPDLKPPLVVLMVSGGHTQLMKVDEDYSMEVLGETLDDSAGEAFDKVARLLGLGYPGGPVIDRVAKKGDPEKYSFPRPMLDDDSYNFSFAGLKTSVLYFLQREKGYKVEDVAASFQKAVVDILVEKTFRLARNLGIRKIAFVGGVAANSMLREEVRKRAERWNYEVFFPPLELCTDNALMVAKAGYEKAKRGMFSPLSLNADPNLNV

Key:
SEC = molecular target: the molecule itself; assay: SEC
Thermotoga maritima TsaD = molecular target: B1; assay: native gel or EMSA

| Binder | stoichiometry N (SEC) | binding result (Thermotoga maritima TsaD) |
| --- | --- | --- |
| Thermotoga maritima TsaB (natural protein, UniProt Q9WZX7 1-206, looked up) MNVLALDTSQRIRIGLRKGEDLFEISYTGEKKHAEILPVVVKKLLDELDLKVKDLDVVGVGIGPGGLTGLRVGIATVVGLVSPYDIPVAPLNSFEMTAKSCPADGVVLVARRARKGYHYCAVYLKDKGLNPLKEPSVVSDEELEEITKEFSPKIVLKDDLLISPAVLVEESERLFREKKTIHYYEIEPLYLQKSIAELNWEKKKRG | 2 | binds |
| B1 | 2 |  |
